Experiment in all cases: biochemical
What all share (assay type): binding

Experiment [1] deals with HaloTag[22-297](M2F + D53G + K140E)-12xGly/Ser-LgBiT-3xGly/Ser-6xHis (Rhodococcus rhodochrous, UniProt P0A3G2, A155T/A167V/A172T/A224E/C128F/C176G/D73G/D78G/E257K/H272N/K175M/K195N/L47V/L88M/N227D/S58T/T264A/Y273L/Y87F).
Experiment [2] has as its target HaloTag[22-297](M2F + K140E)-12xGly/Ser-LgBiT-3xGly/Ser-6xHis (Rhodococcus rhodochrous, UniProt P0A3G2, A155T/A167V/A172T/A224E/C128F/C176G/D78G/E257K/H272N/K175M/K195N/L47V/L88M/N227D/S58T/T264A/Y273L/Y87F). To be noted: biotinylated peptide on streptavidin probes, PBST, 25° C.
Experiment [3] deals with LgBiT-6xHis (Oplophorus gracilirostris, UniProt Q9GV45, A31E/A60N/A81I/D135N/F58L/F95D/G42A/G62A/G78A/G94A/G98A/H120P/I103V/I117V/I134L/K70R/L176M/L54V/L73R/L99Q/M102E/N171T/P142E/Q151K/Q38E/Q45L/V71I/Y165I).
Where [4] appears, read: biotinylated peptide on streptavidin probes, PBST, 25° C.

In patent US20240368565A1, “COMPLEMENTATION-BASED TAGS AND REPORTERS FOR DUAL-MODALITY LABELING” (Promega Corporation, priority 2023, published 2024) one finds Koff, Kon and Kd data, which are given here for 14 compounds.

Peptide text beside a SMILES is read from it. * marks the point of attachment. Biotin = O=C1N[C@H]2[C@H](CS[C@H]2CCCCC(=O)*)N1

Regarding ERGTGFPFDPHYVEVLGGGSGVSVSGWRLFRRIS, in experiment [1] (setting [4]), the Koff result is listed as “NA (dissociation that is too slow for the instrument to measure (limit 10^6 l/s))” and the Kon was 71400 M⁻¹ s⁻¹.
For `CC[C@H](C)[C@H](NC(=O)[C@H](CCC(=O)O)NC(=O)CCCC[C@@H]1SC[C@@H]2NC(=O)N[C@@H]21)C(=O)NCC(=O)N[C@H](C(=O)NCC(=O)N[C@@H](Cc1ccccc1)C(=O)N1CCC[C@H]1C(=O)N[C@@H](Cc1ccccc1)C(=O)N[C@@H](CCCNC(=N)N)C(=O)N1CCC[C@H]1C(=O)N[C@@H](Cc1c[nH]cn1)C(=O)N[C@@H](Cc1ccc(O)cc1)C(=O)N[C@H](C(=O)N[C@@H](CCCCN)C(=O)N[C@H](C(=O)N[C@@H](CC(C)C)C(=O)NCC(=O)NCC(=O)NCC(=O)N[C@@H](CO)C(=O)NCC(=O)N[C@H](C(=O)N[C@@H](CO)C(=O)N[C@H](C(=O)N[C@@H](CO)C(=O)NCC(=O)N[C@@H](Cc1c[nH]c2ccccc12)C(=O)N[C@@H](CCCNC(=N)N)C(=O)N[C@@H](CC(C)C)C(=O)N[C@@H](Cc1ccccc1)C(=O)N[C@@H](CCCCN)C(=O)N[C@@H](CCCCN)C(=O)N[C@H](C(=O)N[C@@H](CO)C(=O)O)[C@@H](C)CC)C(C)C)C(C)C)C(C)C)C(C)C)[C@@H](C)O` [HaloTag[3-19](D9R + E14K)-4xGS-VSHiBiT] (Biotin-EIGTGFPFRPHYVKVLGGGSGVSVSGWRLFKKIS-OH), the Kd in experiment [2] came out at 111 pM.
Turning to “EIGTGFPFDPHYVKVLGGGSGVSVSGWRLFKKIS [HaloTag[3-19](E14K)-4xGly/Ser-VSHiBiT]”, in experiment [2], the Koff result is on record as “NA (dissociation that is too slow for the instrument to measure (limit 10^6 l/s))” and the Kon was 108000 M⁻¹ s⁻¹.
With “EIGTGFPFRPHYVEVRGGGSGVSVSGWRLFKKIS [HaloTag[3-19](D9R + L16R)-4xGS-VSHiBiT]”, in experiment [2], the Koff entry is “NA (dissociation that is too slow for the instrument to measure (limit 10^6 l/s))” and the Kon was found to be 134000 M⁻¹ s⁻¹. Also, in experiment [3] (setting [4]), the Koff entry is given as “NA (dissociation that is too slow for the instrument to measure (limit 10^6 l/s))” and the Kon was 64800 M⁻¹ s⁻¹.
As for `CC[C@H](C)[C@H](NC(=O)[C@H](CCCCN)NC(=O)[C@H](CCCCN)NC(=O)[C@H](Cc1ccccc1)NC(=O)[C@H](CC(C)C)NC(=O)[C@H](CCCNC(=N)N)NC(=O)[C@H](Cc1c[nH]c2ccccc12)NC(=O)CNC(=O)[C@H](CO)NC(=O)[C@@H](NC(=O)CNC(=O)[C@H](CO)NC(=O)CNC(=O)CNC(=O)CNC(=O)[C@H](CC(C)C)NC(=O)[C@@H](NC(=O)[C@H](CCC(=O)O)NC(=O)[C@@H](NC(=O)[C@H](Cc1ccc(O)cc1)NC(=O)[C@H](Cc1c[nH]cn1)NC(=O)[C@@H]1CCCN1C(=O)[C@H](CC(=O)O)NC(=O)[C@H](Cc1ccccc1)NC(=O)[C@@H]1CCCN1C(=O)[C@H](Cc1ccccc1)NC(=O)CNC(=O)[C@@H](NC(=O)CNC(=O)[C@H](CCCNC(=N)N)NC(=O)[C@H](CCC(=O)O)NC(=O)CCCC[C@@H]1SC[C@@H]2NC(=O)N[C@@H]21)[C@@H](C)O)C(C)C)C(C)C)C(C)C)C(=O)N[C@@H](CO)C(=O)O` [HaloTag[3-19](I2R)-4xGly/Ser-HiBiT] (Biotin-ERGTGFPFDPHYVEVLGGGSGVSGWRLFKKIS-OH), the Kd in experiment [1] turned out to be 323 pM.
In the case of “ERGTGFPFDPHYVEVLRGGSGVSVSGWRLFKKIS [HaloTag[3-19](I2R + G17R)-4xGS-VSHiBiT]”, in experiment [2], the Koff entry is on record as “NA (dissociation that is too slow for the instrument to measure (limit 10^6 l/s))” and the Kon is 93300 M⁻¹ s⁻¹.
On the same counts, the results for “EIKTGFPFDPHYVEVRGGGSGVSVSGWRLFKKIS [HaloTag[3-19](G3K + L16R)-4xGS-VSHiBiT]” are “NA (dissociation that is too slow for the instrument to measure (limit 10^6 l/s))” and 97100 M⁻¹ s⁻¹.
For “EIKTGFPFDPHYVKVLGGGSGVSVSGWRLFKKIS [HaloTag[3-19](G3K + E14K)-4xGS-VSHiBiT]” the same measures were “NA (dissociation that is too slow for the instrument to measure (limit 10^6 l/s))” and 128000 M⁻¹ s⁻¹.
On the same counts, the results for “EIGTGFPFDPHYVEVRGGGSGVSVSGWRLFKKIS [HaloTag[3-19](L16R)-4xGly/Ser-VSHiBiT]” are “NA (dissociation that is too slow for the instrument to measure (limit 10^6 l/s))” and 77900 M⁻¹ s⁻¹.
Take “ERGTGFPFRPHYVEVLGGGSGVSVSGWRLFKKIS [HaloTag[3-19](I2R + D9R)-4xGS-VSHiBiT]”: in experiment [2], the Koff entry was “NA (dissociation that is too slow for the instrument to measure (limit 10^6 l/s))” and the Kon worked out at 128000 M⁻¹ s⁻¹.
For `CC[C@H](C)[C@H](NC(=O)[C@H](CCC(=O)O)NC(=O)CCCC[C@@H]1SC[C@@H]2NC(=O)N[C@@H]21)C(=O)NCC(=O)N[C@H](C(=O)NCC(=O)N[C@@H](Cc1ccccc1)C(=O)N1CCC[C@H]1C(=O)N[C@@H](Cc1ccccc1)C(=O)N[C@@H](CCCNC(=N)N)C(=O)N1CCC[C@H]1C(=O)N[C@@H](Cc1c[nH]cn1)C(=O)N[C@@H](Cc1ccc(O)cc1)C(=O)N[C@H](C(=O)N[C@@H](CCC(=O)O)C(=O)N[C@H](C(=O)N[C@@H](CC(C)C)C(=O)NCC(=O)NCC(=O)NCC(=O)N[C@@H](CO)C(=O)NCC(=O)N[C@H](C(=O)N[C@@H](CO)C(=O)N[C@H](C(=O)N[C@@H](CO)C(=O)NCC(=O)N[C@@H](Cc1c[nH]c2ccccc12)C(=O)N[C@@H](CCCNC(=N)N)C(=O)N[C@@H](CC(C)C)C(=O)N[C@@H](Cc1ccccc1)C(=O)N[C@@H](CCCCN)C(=O)N[C@@H](CCCCN)C(=O)N[C@H](C(=O)N[C@@H](CO)C(=O)O)[C@@H](C)CC)C(C)C)C(C)C)C(C)C)C(C)C)[C@@H](C)O` [HaloTag[3-19](D9R)-4xGly/Ser-VSHiBiT] (Biotin-EIGTGFPFRPHYVEVLGGGSGVSVSGWRLFKKIS-OH), the Kd in experiment [2] turned out to be 126 pM.
On to `CC[C@H](C)[C@H](NC(=O)[C@H](CCCCN)NC(=O)[C@H](CCCCN)NC(=O)[C@H](Cc1ccccc1)NC(=O)[C@H](CC(C)C)NC(=O)[C@H](CCCNC(=N)N)NC(=O)[C@H](Cc1c[nH]c2ccccc12)NC(=O)CNC(=O)[C@H](CO)NC(=O)[C@@H](NC(=O)[C@H](CO)NC(=O)[C@@H](NC(=O)CNC(=O)[C@H](CC(C)C)NC(=O)[C@@H](NC(=O)[C@H](CCC(=O)O)NC(=O)[C@@H](NC(=O)[C@H](Cc1ccc(O)cc1)NC(=O)[C@H](Cc1c[nH]cn1)NC(=O)[C@@H]1CCCN1C(=O)[C@H](CC(=O)O)NC(=O)[C@H](Cc1ccccc1)NC(=O)[C@@H]1CCCN1C(=O)[C@H](Cc1ccccc1)NC(=O)CNC(=O)[C@@H](NC(=O)CNC(=O)[C@H](CCCNC(=N)N)NC(=O)[C@H](CCC(=O)O)NC(=O)CCCC[C@@H]1SC[C@@H]2NC(=O)N[C@@H]21)[C@@H](C)O)C(C)C)C(C)C)C(C)C)C(C)C)C(=O)N[C@@H](CO)C(=O)O` [HaloTag[3-19](I2R)-VSHiBiT] (Biotin-ERGTGFPFDPHYVEVLGVSVSGWRLFKKIS-OH), for which, in experiment [1], the Kd came to 713 pM.
Take `CC[C@H](C)[C@H](NC(=O)[C@H](CCCCN)NC(=O)[C@H](CCCCN)NC(=O)[C@H](Cc1ccccc1)NC(=O)[C@H](CC(C)C)NC(=O)[C@H](CCCNC(=N)N)NC(=O)[C@H](Cc1c[nH]c2ccccc12)NC(=O)CNC(=O)[C@H](CO)NC(=O)[C@@H](NC(=O)[C@H](CO)NC(=O)[C@@H](NC(=O)CNC(=O)[C@H](CO)NC(=O)CNC(=O)CNC(=O)CNC(=O)[C@H](CC(C)C)NC(=O)[C@@H](NC(=O)[C@H](CCC(=O)O)NC(=O)[C@@H](NC(=O)[C@H](Cc1ccc(O)cc1)NC(=O)[C@H](Cc1c[nH]cn1)NC(=O)[C@@H]1CCCN1C(=O)[C@H](CC(=O)O)NC(=O)[C@H](Cc1ccccc1)NC(=O)[C@@H]1CCCN1C(=O)[C@H](Cc1ccccc1)NC(=O)CNC(=O)[C@@H](NC(=O)[C@H](CCCCN)NC(=O)[C@H](CCCNC(=N)N)NC(=O)[C@H](CCC(=O)O)NC(=O)CCCC[C@@H]1SC[C@@H]2NC(=O)N[C@@H]21)[C@@H](C)O)C(C)C)C(C)C)C(C)C)C(C)C)C(=O)N[C@@H](CO)C(=O)O` [HaloTag[3-19](I2R + G3K)-4xGS-VSHiBiT] (Biotin-ERKTGFPFDPHYVEVLGGGSGVSVSGWRLFKKIS-OH): the Kd in experiment [3] was 323 pM.
Still for that read-out and setting: with `CC[C@H](C)[C@H](NC(=O)[C@H](CCCCN)NC(=O)[C@H](CCCCN)NC(=O)[C@H](Cc1ccccc1)NC(=O)[C@H](CC(C)C)NC(=O)[C@H](CCCNC(=N)N)NC(=O)[C@H](Cc1c[nH]c2ccccc12)NC(=O)CNC(=O)[C@H](CO)NC(=O)[C@@H](NC(=O)[C@H](CO)NC(=O)[C@@H](NC(=O)CNC(=O)[C@H](CO)NC(=O)CNC(=O)CNC(=O)CNC(=O)[C@H](CC(C)C)NC(=O)[C@@H](NC(=O)[C@H](CCC(=O)O)NC(=O)[C@@H](NC(=O)[C@H](Cc1ccc(O)cc1)NC(=O)[C@H](Cc1c[nH]cn1)NC(=O)[C@@H]1CCCN1C(=O)[C@H](CC(=O)O)NC(=O)[C@H](Cc1ccccc1)NC(=O)[C@@H]1CCCN1C(=O)[C@H](Cc1ccccc1)NC(=O)[C@H](CCCNC(=N)N)NC(=O)[C@@H](NC(=O)CNC(=O)[C@H](CCCNC(=N)N)NC(=O)[C@H](CCC(=O)O)NC(=O)CCCC[C@@H]1SC[C@@H]2NC(=O)N[C@@H]21)[C@@H](C)O)C(C)C)C(C)C)C(C)C)C(C)C)C(=O)N[C@@H](CO)C(=O)O` [HaloTag[3-19](I2R + G5R)-4xGS-VSHiBiT] (Biotin-ERGTRFPFDPHYVEVLGGGSGVSVSGWRLFKKIS-OH) the figure was 110 pM.
